Measured values published in article PMC8635433 (Science Advances, 2021).

Molecular target: coxsackie and adenovirus receptor (CAR), immobilised for SPR (UniProt P78310 20-365)
Assay: SPR; BIAcore T200; about 2000 RU of CAR, DSG2 and CD46 amine-coupled to a CM5 chip; fiber knob proteins flowed over, 1:2 serial dilutions; 25°C, PBS with 0.001% P20, 30 μl/min; 1:1 interaction model
Settings: both partners purified

Chain of coxsackie and adenovirus receptor (CAR), immobilised for SPR (P78310 20-365): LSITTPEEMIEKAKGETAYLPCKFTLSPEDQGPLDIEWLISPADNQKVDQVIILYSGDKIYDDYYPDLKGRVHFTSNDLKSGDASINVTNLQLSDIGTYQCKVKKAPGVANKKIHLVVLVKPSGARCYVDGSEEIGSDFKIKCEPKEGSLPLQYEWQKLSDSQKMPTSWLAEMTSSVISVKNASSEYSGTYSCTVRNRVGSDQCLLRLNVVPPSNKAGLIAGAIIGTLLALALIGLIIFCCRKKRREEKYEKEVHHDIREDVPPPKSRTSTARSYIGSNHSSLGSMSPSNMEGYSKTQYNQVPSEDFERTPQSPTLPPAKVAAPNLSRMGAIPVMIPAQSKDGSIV

B1: HAdV-C5 fiber knob protein (domain or fragment)
chain: TGAITVGNKNNDKLTLWTTPAPSPNCRLNAEKDAKLTLVLTKCGSQILATVSVLAVKGSLAPISGTVQSAHLIIRFDENGVLLNNSFLDPEYWNFRNGDLTEGTAYTNAVGFMPNLSAYPKSHGKTAKSNIVSQVYLNGDKTKPVTLTITLNGTQETGDTTPSAYSMSFSWDWSGHNYINEIFATSSYTFSYIAQE
notes: source: recombinant soluble knob protein, purified
  Kd: 0.06 nM
